B1: 1066 (protein, listed as Caulobacter segnis)
chain: MQIDRRRVMLLGGAGSLVVAQGEAAPLGAAAISDCRVCGLETPLALGAATPRFSWRLSGPRPQAAYRITVARSAADLSAPRDLVWDSGKVASGQSFDIAFGGPAAAPRQVFWWRVEAWDDKGARAVGRPARWETGLLSASDWNAAWLAAEDATAKADRLAGVHWISGPESITDKTSKRCYRTSFEVPAQSDGTLFLAASGLAGVFLNGQELAAGEEEPTRFTTMSPYPLALRQGRNVIAIAQTPSRDLGGPQPMLCALIRLGGSERRLSTAEGWKTTVNAPEGWTLPDFDDGAWPAATTARNRPRGQPLPPGAATHLRRAFRLDKPVAQARLYATALGAYEAWINGAPADERKMAPEPTNLLERVLYQAYDVTAALRAGDNVLGLWVGDGWYASEFSANARFCFGPAPCRAMAQLEILFIDGSRQVIATDDQWRIAPSAILTSEIYDGEVYDARQEIKDWALPGTPQGGWRPAETVEAPNLPIDPQVSPPIRVTQRLKPKAVTSPKPGVHVFDFGQNFAGWAELAISGKAGTRIELLFGEYLKPDGQVDQANLRTAFARDTYVLKGQGREVWSPRFTYHGFRYVEVRGLANAPAADLLTGLVGHNDIRVSGVLRVGAPVVEQFWRNSVWSQRSNFFGLPTDCPQRDERLGWLGDAAVFWPAAAYNMDVEAFTRRFMGDVRRAQRPDGQFPDCIPPFMVPSSRSAPGWSDAGVILPYTAWRQYGDTGVIAENWEAMERYLAFILAKNPDYLWKSSKGNDYGDWLAVDAKYLGEATTPKDLIGTAFWAADAAMMRDMAKAIGKAEAAERYRALFEAIRAAFAGAYVQADGKIGNGSQTSYILAIRFGLLSPEQASEAGRRLAADIAARGGKLSTGFLGTPHILDALADTGHEATAVGLLLQRDYPSWGYMVTKGATTMWERWNSDTGDLSMNSYNHYAFGAIGDFLFRRIAGLAAVEPGFAKVVIAPIFDRRLGSAGADYDSVSGRLSSNWRYEGDTVRLDLSIPPGVQAEVVIPTAARAVRVDGRPVPSARFRVERGQHRVVFTA
B2: 1053 (protein, listed as Solibacter usitatus)
chain: MKRAALLILLAGTLFGAASVRPQQLRCEYRVNPQGIDVKDPRLSWILAPVNPKGRGLTQSAYRILVSSSEAALRGNSGDLWDSGKIVSAESTQVAYQGKPLNSGTAAFWKVQVWDQDGQPSDWSAPAQWSMGLLRAEDWKGRWIGRDEAGVYKDSASDYQLLERARWIWDAGNAQAGAPVGNRFFRAAFTVPAGRKVTRALSVIGADNTADVYLNGEPIAVESKLPLPHAVDITHLVRPGENVIAVRATHSRADRPAGLIGGVRVEFASGDPVLLQTSNQWRTVAKPDPGWENPGFLDAAWQASKDLGAFGMAPWEGVGFLAQHRLPGRLLRKEFALEKKLRRATVYYSGLGLSELYLNGAKVGDHVLSPGLTDYDKHVLYVTFDVTRQLVQGKNAIGLMLGNGRYYAPRNDVPIKTRDFGYPKALVQLDLEFEDGSRANVVSDETWKYSADGPIRANNEYDGEEYDARREIAGWNKAGFDDAGWEAAKIVGASSGAVVAQMAEPLRVTETVKPLGVKKLRPGVFVFDMGQNLVGWCRLRVTGPKGTQVKLRHSETLKDDGSLYVDNLRSAKAEDIYTLKGVGAEVYEPRFTYHGFRYVEVTGFPGEPSASALDARVVHDDMERAGEFTSSSGLLNKIHHNMFWGIRGNYRSIPTDCPQRDERQGWLGDRGQVSRSESYMFDVAGFYSKWMTDLEDSQRPSGSIPDVSPNYWPLYNDDLTWPGTIIFIHGMLYDQYGDKRVLARGYPAMKKWMDYEKTFVKDGLISKDQYADWCVPPEDPKLIHSQDPRRVTDKTLIATSYYYQFLRTMSRYARILDRPTDAADFDKQADQVQDTFQRRFFKLESGMYDNGTQTSSILPLYFGMIPADFRPAVVQTLVRNIELQSNGHVGTGLVGAQWLMRTLSDAGYADLAYKIATQKTYPGWGYMVEQGATTIWELWNGNTADPAMNSGNHVMQIGDLAVWMYEYLAGIRTDPEKPGFRHAVIRPYPAGDLSFVKATHKTMYGPLASSWKREKGEFMLDVTVPANTTATVWVPAKDAASVTESGKKATDVKGVKFVRSENGSAIFEVSSGAYSFKSGI
B3: 1018 (protein)
chain: MFELDRRALLLGLPVTSGALADGASQTSRWRAVGLRTAMRRQPLGIDDPQPMLSWRLEGPAGAVQSAYQIMVASTAEKLHAGVADLWDSGRVKSSESVGVRYGGAPLKPRQRCVWRVRAWDAAGRASDWSPPATWEMGLIDQSEWIGDWLAVEAADERDDRVAGVRWVETQTPKPHETCRFRLSFRSGGGEGRLAIMAEGKLSKLVLDGRSIELPWRDPNGYGDPPALGLPLQLEAGAHELIAEVTSTGPGEGPGRAALGAQVRVLAADGAARRIVDGWETEAAGAWTPAVVRTAQPHFPWPPTPARLLRRTFTLSKPPTQARLYVSALGGYRIWLNGRRVGDDELQTEPAAYRRHVPYRAYDVTDLLRDGENVVGLIVGDGTFASYQAPDGRYAYGPGPRRVRLFLESRDSGDRVERVATDGEWRHALSPVLMSEIYAGEDHDLRLWPRGWAEPGFDDSGWSRVWTAPPPEGAPCALLSEPIRETRVLKAASIRAVGPGRHIVDFGQNFAGRVRLRVKGAKGAPVIVRHAEILDGQGALDRRNLRVARAEDRYILNGDDAPETLQPSFTYQGFRYAEIEGVAGLDRDMIDGVVLSSDLPEIGVFRTAEPLVQNLWLNSLWSQRSNFMGIPTDCPQRDERLGWTGDAQVFWETAAFNMDVGGFTRGFARTLRDDQAPNGAYPMWSPSPRGLGWGTTTPTPGWADGGVMLPYVAYLHSGDRSIVDENWTAMSAYVSGVLAENPDGLWRRGRGADFGDWLALDGKWPGDETTPKDLIATAMLARSVDQLAQMAAWTGRSAEAKTWRGQADRIKAAFASAFVRADGTVGNGSHTGYILALRLGLAPQPLRKAAGEHLAADIRRRGTLLSTGFLGTPLALDALADHGHAGLAFDLLLRTEYPSWGYMVRRGATTTWERWNGDTGDVSMNSFNHYALGAICGFLYRRVAGVEPITPGFGAFRVAPLIDPRLRSAGATVDSVRGRIETDWRVTGDKAVLKVRVPANSRAEVVLPTLTRSLGAGDHTLSVPLAK
modifications: Caulobacter vibrioides
B4: 989 (protein, listed as Rhodothermus marinus)
chain: MVLLFLGGAKEGAAQSNQALQVASLRTEYLVNPIGIEVRQPRLSWQLQSDRRDVRQVAYQIQVATSREALARGRDLVWDSGRVESDQSVFVPYGGPALQRRQRYYWRVRVWDNHGRSSAWSEPAFWEMGLLSPDEWRAQWITYNWEEDTSQPQPAPMLRRTFRVEGRVRRARLYITSLGLYEAHLNGRRVGDQLFTPGWTSYHHRLQYQTYDVTDLLRPGENALGVILGDGWYRGYLTWSVRRNVYGDRLALLAQLEITYEDGRTQVVTSDPDWKATTGPIRMSDIYMGEIYDARLEKEGWTEPGYDDSDWRGVRVLEHPKDILIAPIGPPVRRIQEIRPVAILYTPAGDTVVDMGQNMVGWVRLRVRGPAGTVVTLRHAEVLDKHGNFYTENLRRARQTDQYILKGEGEEVFEPHFTFHGFRYVAVSGYPGELTPEAITGIVIHSAFEPTGTWVSSDSLLNRLQLNIQWGMKGNFLDVPTDCPQRDERLGWTGDAQVFARTAMFNGLVGGFFTKWLGDVAADQSPEGAVPHVVPNVLPSFAGRFPGGATGWADAAVVIPWTMYQVYGDRRILEVQYPSMKAWVEYMRREAGDDLIWDTGFHFGDWLAFVPEENVRRAYPGATTGRDFLATAYFAYSTRLLAQAAEVIGKTDEARHYRQLYEAIREAFNREFVTPNGRVAQATQTAYTLAIQFDLLPEHLRAEAGRRLAEDVRAHNMHLTTGFLGTPQLLHALSNTGQLDVAYTLLRQTTYPSWLYQVKMGATTMWERWDSIKPDSTFQDPSMNSFNHYAYGSVGDWMYRVVAGIDTETPGYQRLRIAPQPGGGLKWVQARYHSLYGEVASSWELVDPQTFVLEVTIPPNTTATVRLPGAQLASVQEGRQPVQSAAGVHRAYQDGADVVVEVGSGTYRFTYSPSAELVRRIQTQPEVGQPVTMSF

Test: Experiment 6-1: screening of rhamnosidases for derhamnosylation of saponins in treated bark extract (2%), QS-17 2310 to QS-18 2164 (PAR %)
Type: biochemical, Quillaja saponaria
Settings: TBE 2%, pH 7.5, 30 degC, 18 h; TIC peak area ratio percent, LCMS/MS; negative controls 3.061, 2.429

Molecule	Peak57 (PAR %) [%]
B1	0.896
B2	0.550
B3	0.547
B4	0.305

Test: Experiment 6-1: screening of rhamnosidases for derhamnosylation of saponins in treated bark extract (2%), desglucosyl-QS-17 2134 to QS-21 1988 (PAR %)
Type: biochemical, Quillaja saponaria
Settings: TBE 2%, pH 7.5, 30 degC, 18 h; TIC peak area ratio percent, LCMS/MS; negative controls 2.719, 2.158

Molecule	Peak75 (PAR %) [%]
B1	1.220
B2	0.944
B3	2.651
B4	0.478

Test: Experiment 6-1: specificity of rhamnosidases towards other rhamnose residues (C3 saccharide rhamnose, C28 saccharide rhamnose)
Type: biochemical, Quillaja saponaria
Settings: TBE 2%, pH 7.5, 30 degC, 18 h; LCMS/MS; negative controls 0.18, 0.17

Molecule	ratio PP/QS-21
B1	0.18
B2	0.18
B3	0.17
B4	0.18

Test: Experiment 6-3: screening of rhamnosidases for derhamnosylation of saponins in crude bark extract (80%), relative % of Left, Middle and Right Peak by UV HPLC
Type: biochemical, Quillaja saponaria
Settings: CBE 80%, pH 7.4, 30 degC, 19.5 h, mainly QS-17 family, negative control 27%
Outline: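 Clarified lysates of expressed rhamnosidase variants were incubated with crude bark extract (pH 7.4, final 80%) at 30 degC with shaking for 19.5 h, then quenched with MeCN+2% AcOH. UV HPLC gave relative % of Left (QS-17), Middle (QS-18/desglucosyl-QS-17) and Right (QS-21) peaks.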

Molecule	Left Peak [%]
B1	26
B2	26
B3	26
B4	29

Same assay, conditions: CBE 80%, pH 7.4, 30 degC, 19.5 h, mainly QS-18 and desglucosyl-QS-17 family, negative control 48%

Molecule	Middle Peak [%]
B1	48
B2	48
B3	48
B4	43

Same assay, conditions: CBE 80%, pH 7.4, 30 degC, 19.5 h, mainly QS-21 family, negative control 26%

Molecule	Right Peak [%]
B1	27
B2	26
B3	26
B4	27

Test: Experiment 6-2: screening of rhamnosidases for derhamnosylation of saponins in treated bark extract (25%), relative % of Left, Middle and Right Peak by UV HPLC
Type: biochemical, Quillaja saponaria
Settings: TBE 25%, pH 7.4, 19.5 h, mainly QS-17 family, negative control 24%

Molecule	Left Peak [%]
B1	20
B2	20
B3	22
B4	19

Same assay, conditions: TBE 25%, pH 7.4, 19.5 h, mainly QS-18 and desglucosyl-QS-17 family, negative control 50%

Molecule	Middle Peak [%]
B1	53
B2	54
B3	52
B4	54

Same assay, conditions: TBE 25%, pH 7.4, 19.5 h, mainly QS-21 family, negative control 26%

Molecule	Right Peak [%]
B1	27
B2	26
B3	26
B4	26

Test: Experiment 6-1: screening of rhamnosidases for derhamnosylation of saponins in treated bark extract (2%), QS-17 2296 to QS-18 2150 (PAR %)
Type: biochemical, Quillaja saponaria
Settings: TBE 2%, pH 7.5, 30 degC, 18 h; TIC peak area ratio percent of rhamnosylated starting saponin to derhamnosylated product, LCMS/MS; negative controls 4.876, 5.225

Molecule	QS-17 (PAR %) [%]
B1	2.194
B2	1.127
B3	1.512
B4	0.516

From US20240026407A1, “MODIFICATION OF SAPONINS” (GLAXOSMITHKLINE BIOLOGICALS SA, priority 2020, published 2024)
